Experimental data taken from publication PMC7481392, “Identification of MltG as a Prc Protease Substrate Whose Dysregulation Contributes to the Conditional Growth Defect of Prc-Deficient Escherichia coli” (Frontiers in Microbiology, 2020).
Residue numbers refer to the chain shown, from its start.

B1: HupA, N-terminally 6xHis-tagged, from the ASKA ORF library (on the proteome array) (natural protein, E. coli K12, UniProt P0ACF0 1-90, looked up)
chain: MNKTQLIDVIAEKAELSKTQAKAALESTLAAITESLKEGDAVQLVGFGTFKVNHRAERTGRNPQTGKEIKIAAANVPAFVSGKALKDAVK
notes: ORF clone of the ASKA library; source: E. coli, ASKA library clone, purified (Ni-NTA, high-throughput)
B2: YfaU, N-terminally 6xHis-tagged, from the ASKA ORF library (on the proteome array) (natural protein, E. coli K12, UniProt P76469 1-267, looked up)
chain: MNALLSNPFKERLRKGEVQIGLWLSSTTAYMAEIAATSGYDWLLIDGEHAPNTIQDLYHQLQAVAPYASQPVIRPVEGSKPLIKQVLDIGAQTLLIPMVDTAEQARQVVSATRYPPYGERGVGASVARAARWGRIENYMAQVNDSLCLLVQVESKTALDNLDEILDVEGIDGVFIGPADLSASLGYPDNAGHPEVQRIIETSIRRIRAAGKAAGFLAVAPDMAQQCLAWGANFVAVGVDTMLYSDALDQRLAMFKSGKNGPRIKGSY
notes: YfaU (RhmA), 2-keto-3-deoxy-L-rhamnonate aldolase, E. coli K12; ORF clone of the ASKA library; also called RhmA; source: E. coli, ASKA library clone, purified (Ni-NTA, high-throughput)
B3: YidA, N-terminally 6xHis-tagged, from the ASKA ORF library (on the proteome array) (natural protein, E. coli K12, UniProt P0A8Y5 1-270, looked up)
chain: MAIKLIAIDMDGTLLLPDHTISPAVKNAIAAARARGVNVVLTTGRPYAGVHNYLKELHMEQPGDYCITYNGALVQKAADGSTVAQTALSYDDYRFLEKLSREVGSHFHALDRTTLYTANRDISYYTVHESFVATIPLVFCEAEKMDPNTQFLKVMMIDEPAILDQAIARIPQEVKEKYTVLKSAPYFLEILDKRVNKGTGVKSLADVLGIKPEEIMAIGDQENDIAMIEYAGVGVAMDNAIPSVKEVANFVTKSNLEDGVAFAIEKYVLN
notes: YidA, sugar phosphatase, E. coli K12; ORF clone of the ASKA library; source: E. coli, ASKA library clone, purified (Ni-NTA, high-throughput)
B4: YaaW, N-terminally 6xHis-tagged, from the ASKA ORF library (on the proteome array) (natural protein, E. coli K12, UniProt P75617 1-237, looked up)
chain: MNVNYLNDSDLDFLQHCSEEQLANFARLLTHNEKGKTRLSSVLMRNELFKSMEGHPEQHRRNWQLIAGELQHFGGDSIANKLRGHGKLYRAILLDVSKRLKLKADKEMSTFEIEQQLLEQFLRNTWKKMDEEHKQEFLHAVDARVNELEELLPLLMKDKLLAKGVSHLLSSQLTRILRTHAAMSVLGHGLLRGAGLGGPVGAALNGVKAVSGSAYRVTIPAVLQIACLRRMVSATQV
notes: YaaW, function E. coli K12; ORF clone of the ASKA library; source: E. coli, ASKA library clone, purified (Ni-NTA, high-throughput)
B5: YdhS, N-terminally 6xHis-tagged, from the ASKA ORF library (on the proteome array) (natural protein, E. coli K12, UniProt P77148 1-534, looked up)
chain: MKKIAIVGAGPTGIYTLFSLLQQQTPLSISIFEQADEAGVGMPYSDEENSKMMLANIASIEIPPIYCTYLEWLQKQEDSHLQRYGVKKETLHDRQFLPRILLGEYFRDQFLRLVDQARQQKFAVAVYESCQVTDLQITNAGVMLATNQDLPSETFDLAVIATGHVWPDEEEATRTYFPSPWSGLMEAKVDACNVGIMGTSLSGLDAAMAVAIQHGSFIEDDKQHVVFHRDNASEKLNITLLSRTGILPEADFYCPIPYEPLHIVTDQALNAEIQKGEEGLLDRVFRLIVEEIKFADPDWSQRIALESLNVDSFAQAWFAERKQRDPFDWAEKNLQEVERNKREKHTVPWRYVILRLHEAVQEIVPHLNEHDHKRFSKGLARVFIDNYAAIPSESIRRLLALREAGIIHILALGEDYKMEINESRTVLKTEDNSYSFDVFIDARGQRPLKVKDIPFPGLREQLQKTGDEIPDVGEDYTLQQPEDIRGRVAFGALPWLMHDQPFVQGLTACAEIGEAMARAVVKPASRARRRLSFD
notes: YdhS, function E. coli K12; ORF clone of the ASKA library; source: E. coli, ASKA library clone, purified (Ni-NTA, high-throughput)
B6: RfaD, N-terminally 6xHis-tagged, from the ASKA ORF library (on the proteome array) (natural protein, E. coli K12, UniProt P67910 1-310, looked up)
chain: MIIVTGGAGFIGSNIVKALNDKGITDILVVDNLKDGTKFVNLVDLNIADYMDKEDFLIQIMAGEEFGDVEAIFHEGACSSTTEWDGKYMMDNNYQYSKELLHYCLEREIPFLYASSAATYGGRTSDFIESREYEKPLNVYGYSKFLFDEYVRQILPEANSQIVGFRYFNVYGPREGHKGSMASVAFHLNTQLNNGESPKLFEGSENFKRDFVYVGDVADVNLWFLENGVSGIFNLGTGRAESFQAVADATLAYHKKGQIEYIPFPDKLKGRYQAFTQADLTNLRAAGYDKPFKTVAEGVTEYMAWLNRDA
notes: RfaD, ADP-L-glycero-D-manno-heptose-6-epimerase, E. coli K12; ORF clone of the ASKA library; source: E. coli, ASKA library clone, purified (Ni-NTA, high-throughput)
B7: YacF, N-terminally 6xHis-tagged, from the ASKA ORF library (on the proteome array) (natural protein, E. coli K12, UniProt P36680 1-247, looked up)
chain: MQTQVLFEHPLNEKMRTWLRIEFLIQQLTVNLPIVDHAGALHFFRNVSELLDVFERGEVRTELLKELDRQQRKLQTWIGVPGVDQSRIEALIQQLKAAGSVLISAPRIGQFLREDRLIALVRQRLSIPGGCCSFDLPTLHIWLHLPQAQRDSQVETWIASLNPLTQALTMVLDLIRQSAPFRKQTSLNGFYQDNGGDADLLRLNLSLDSQLYPQISGHKSRFAIRFMPLDTENGQVPERLDFELACC
notes: YacF (ZapD), cell division protein, E. coli K12; ORF clone of the ASKA library; also called ZapD; source: E. coli, ASKA library clone, purified (Ni-NTA, high-throughput)
B8: TyrA, N-terminally 6xHis-tagged, from the ASKA ORF library (on the proteome array) (natural protein)
chain: not shown
notes: TyrA, fused chorismate mutase/prephenate dehydrogenase, E. coli K12; ORF clone of the ASKA library; source: E. coli, ASKA library clone, purified (Ni-NTA, high-throughput)
B9: YegV, N-terminally 6xHis-tagged, from the ASKA ORF library (on the proteome array) (natural protein, E. coli K12, UniProt P76419 1-321, looked up)
chain: MSGARLHTLLPELTTRQSVMVVGAAVIDVIADAYALPWRGCDIELKQQSVNVGGCALNIAVALKRLGIEAGNALPLGQGVWAEMIRNRMAKEGLISLIDNAEGDNGWCLALVEPDGERTFMSFSGVENQWNRQWLARLTVAPGSLLYFSGYQLASPCGELLVEWLEELQDVTPFIDFGPRIGDIPDALLARIMACRPLVSLNRQEAEIAAERFALSAEITTLGKQWQEKFAAPLIVRLDKEGAWYFSNDASGCIPAFPTQVVDTIGAGDSHAGGVLAGLASGLPLADAVLLGNAVASWVVGHRGGDCAPTREELLLAHKNV
notes: YegV, putative sugar kinase, E. coli K12; ORF clone of the ASKA library; source: E. coli, ASKA library clone, purified (Ni-NTA, high-throughput)

The binders below were run against T1, Prc protease (wild type), C-terminally His6-tagged (E. coli, UniProt P23865 23-682, Dylight 549 NHS ester on amines) (assay: peptide or protein array; E. coli K12 proteome array (N-terminally His6-tagged ASKA proteins spotted in duplicate on slides), blocked with 1% BSA in TBS, probed with 1 μM Dylight 549-labelled Prc variant in PBS pH 7.4 with 1% BSA, RT, 1 h; washed with TBS-T; triplicate). Details: both partners purified.
T1 construct: Prc (Tsp), periplasmic protease of Escherichia coli, 76 kDa; encoded on pTR147 (Spiers et al., 2002); also called Tsp; Prc (WT); source: E. coli DH5α harboring pTR147, purified (Ni-NTA)
T1 sequence (looked up): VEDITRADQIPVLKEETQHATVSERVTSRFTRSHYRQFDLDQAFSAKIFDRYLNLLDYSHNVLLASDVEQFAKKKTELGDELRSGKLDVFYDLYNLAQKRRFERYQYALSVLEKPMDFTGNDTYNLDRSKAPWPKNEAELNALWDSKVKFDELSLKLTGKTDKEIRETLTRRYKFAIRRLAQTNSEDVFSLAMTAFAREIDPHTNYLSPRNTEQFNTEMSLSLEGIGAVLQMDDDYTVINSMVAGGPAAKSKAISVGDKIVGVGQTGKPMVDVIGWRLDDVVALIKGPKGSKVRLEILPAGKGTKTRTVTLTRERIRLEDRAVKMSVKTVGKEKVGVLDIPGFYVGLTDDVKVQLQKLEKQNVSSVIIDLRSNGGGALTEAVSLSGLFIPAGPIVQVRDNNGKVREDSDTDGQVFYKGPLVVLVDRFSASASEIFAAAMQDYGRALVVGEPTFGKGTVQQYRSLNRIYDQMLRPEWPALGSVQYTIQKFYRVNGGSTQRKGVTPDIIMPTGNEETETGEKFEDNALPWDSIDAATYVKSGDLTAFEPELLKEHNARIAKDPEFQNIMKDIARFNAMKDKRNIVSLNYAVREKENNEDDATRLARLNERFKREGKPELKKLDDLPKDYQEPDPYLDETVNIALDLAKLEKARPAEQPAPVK

Row | Binder | binding result
1 | B1 | binds
2 | B2 | binds
3 | B3 | binds
4 | B4 | binds
5 | B5 | binds
6 | B6 | binds

These binders were tested against T2, K455A-Prc, catalytically inactive Prc mutant, C-terminally His6-tagged (E. coli, UniProt P23865 23-682, K455A, Dylight 549 NHS ester on amines (array assay only)) in the same assay as above. Details: both partners purified.
T2 construct: Prc (Tsp), periplasmic protease of Escherichia coli, with K455A; encoded on pTR163 (Spiers et al., 2002); The same construct was used purified and labelled on the array, and unlabelled in lysate for the co-IP; source: E. coli DH5α harboring pTR163, purified (Ni-NTA); E. coli ΔmltG-BW25113 harboring pTR163, in lysate; not shown: His6, C-terminal, kept
T2 sequence (looked up): T1 sequence (looked up) with K455A

Row | Binder | binding result
7 | B2 | binds
8 | B3 | binds
9 | B4 | binds
10 | B7 | binds
11 | B8 | binds
12 | B9 | binds
